Reference: PMC11980842, “MprF from Pseudomonas aeruginosa is a promiscuous lipid scramblase with broad substrate specificity” (Science Advances, 2025)

Legend:
[1] = target: T1, Truncated PaMprF construct of residues 1 to 545 (TM region) (Pseudomonas aeruginosa PAO1); assay: pull-down; truncated PaMprF construct of residues 1 to 545 with sybodies; who was held is not told
T1 construct: MprF of Pseudomonas aeruginosa (PAO1), residues 1 to 545, representing the transmembrane region; also called truncated form of PaMprF representing the TM region
T1 chain: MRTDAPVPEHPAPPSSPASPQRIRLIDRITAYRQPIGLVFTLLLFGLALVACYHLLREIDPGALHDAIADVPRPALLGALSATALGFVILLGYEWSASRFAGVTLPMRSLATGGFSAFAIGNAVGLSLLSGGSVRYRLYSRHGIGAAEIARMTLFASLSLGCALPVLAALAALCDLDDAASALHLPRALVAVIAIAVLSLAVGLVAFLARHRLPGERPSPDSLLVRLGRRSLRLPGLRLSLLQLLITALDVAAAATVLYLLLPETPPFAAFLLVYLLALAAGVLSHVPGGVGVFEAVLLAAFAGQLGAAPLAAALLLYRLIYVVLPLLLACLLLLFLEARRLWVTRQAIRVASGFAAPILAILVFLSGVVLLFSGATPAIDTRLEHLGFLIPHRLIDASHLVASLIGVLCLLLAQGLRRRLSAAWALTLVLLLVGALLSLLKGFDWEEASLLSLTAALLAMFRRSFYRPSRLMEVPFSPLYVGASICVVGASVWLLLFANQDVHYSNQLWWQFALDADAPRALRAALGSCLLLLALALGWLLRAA

[2] = target: T2, Multiple peptide resistance factor (MprF) from Pseudomonas aeruginosa, full length (Pseudomonas aeruginosa PAO1); assay: cryo-EM structure; PaMprF in SaposinA-lipid nanoparticles (POPC:POPG 7:3 mol/mol), separated by SEC, mixed with a 1.2x molar excess of Sb29; settings: both partners purified
T2 construct: MprF of Pseudomonas aeruginosa, gene cloned from PAO1 genomic DNA into p7XC3H; full length, monomer of 96 kDa; The monomeric SEC fraction was pooled for downstream experiments; also called PaMprF; WT PaMprF; source: E. coli C41, purified (Ni Sepharose, SEC); reconstituted into SaposinA-lipid nanoparticles for cryo-EM
T2 chain: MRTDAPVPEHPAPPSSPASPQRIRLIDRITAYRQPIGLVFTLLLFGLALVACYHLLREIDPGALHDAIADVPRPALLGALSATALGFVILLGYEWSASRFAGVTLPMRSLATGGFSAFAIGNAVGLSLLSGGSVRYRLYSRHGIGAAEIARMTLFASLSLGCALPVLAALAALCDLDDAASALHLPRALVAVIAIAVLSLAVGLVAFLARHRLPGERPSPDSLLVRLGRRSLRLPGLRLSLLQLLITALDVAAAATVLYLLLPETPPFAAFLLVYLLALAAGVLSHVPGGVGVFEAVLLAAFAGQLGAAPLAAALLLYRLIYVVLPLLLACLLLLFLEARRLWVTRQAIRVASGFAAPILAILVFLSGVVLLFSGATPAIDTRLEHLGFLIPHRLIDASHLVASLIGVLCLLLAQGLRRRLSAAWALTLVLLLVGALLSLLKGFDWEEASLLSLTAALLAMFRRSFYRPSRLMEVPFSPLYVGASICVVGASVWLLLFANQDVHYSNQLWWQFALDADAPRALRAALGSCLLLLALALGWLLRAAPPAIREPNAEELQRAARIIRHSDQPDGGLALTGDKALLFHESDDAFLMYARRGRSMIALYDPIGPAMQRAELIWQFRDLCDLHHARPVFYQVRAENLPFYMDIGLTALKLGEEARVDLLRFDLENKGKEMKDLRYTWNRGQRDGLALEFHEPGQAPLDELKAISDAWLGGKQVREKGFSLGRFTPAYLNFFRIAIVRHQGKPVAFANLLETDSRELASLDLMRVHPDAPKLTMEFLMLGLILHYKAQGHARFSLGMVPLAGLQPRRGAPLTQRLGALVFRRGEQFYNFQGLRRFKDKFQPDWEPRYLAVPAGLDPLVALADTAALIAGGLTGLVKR

B1: Sybody 29 (synthetic nanobody against PaMprF) (VHH)
VHH: GVQLVESGGGLVQAGGSLRLSCAASGFPVSSAWMAWYRQAPGKEREWVAAIFSAGQKTRYADSVKGRFTISRDNAKNTVYLQMNSLKPEDTAVYYCNVKDTGHWWDIYDYWGQGTQVTVSA
notes: synthetic nanobody from the loop sybody sublibrary; the structure of its complex with PaMprF was deposited as PDB 9GOE; Selected by one round of ribosome display and two rounds of phage display against biotinylated full-length PaMprF; also called Sb29
B1: binds [1]; binds [2].
